Assay results reported in article PMC5025888 (Scientific Reports, 2016).

Experiments:
H1N1-PR8-NS1(RBD) = H1N1-PR8-NS1(RBD) (Influenza A virus A/Puerto …, UniProt P03496); experiment: ELISA; conditions: both partners purified
H5N1-NS1-24mer = H5N1-NS1-24mer (Influenza A virus …); experiment: ELISA; conditions: both partners purified
H5N1-NS1-24mer (Influenza A virus …), sequence (O57276 30-53): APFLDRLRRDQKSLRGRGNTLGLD

H1N1-PR8-NS1(RBD), sequence (P03496 1-70): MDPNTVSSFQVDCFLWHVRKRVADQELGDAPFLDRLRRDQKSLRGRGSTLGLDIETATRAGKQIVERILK

B1: monoclonal antibody 2H6 (antibody, V domains shown)
VH: DVKLVESGGGLVNLGGSLKLSCAASGFTFSRYYMSWVRQTPEKRLELVAAINHNSGRTYYSDTVKGRFTISRDNAKNTLYLQMSSLKSEDTALYYCTRHPLIYHGNYLDYWGQGTTLTVSS
VL: DIVLTQSPASLAVSLGQRATISCKASQSVDYDGDSYVTWYQQKPGQPPKLLIYVASNLESGIPARFSGSGSGTDFTLNIHPVEEEDAATYYCQQSNEDPWTFGGGTKLEIK
binding result (H1N1-PR8-NS1(RBD)): binds
binding result (H5N1-NS1-24mer): binds
